According to patent US20250009852A1, “DEPLETING EGFR AND HER2 OVERCOMES RESISTANCE TO EGFR INHIBITORS IN COLORECTAL CANCER” (Health Research, Inc., priority 2021, published 2025):

Columns and labels:
[1] = test system: PI3K; assay: PI3K activity assay (PI3-Kinase Activity ELISA) in cell lysates; type: cell-based, human; conditions: 25 nM, 48 h
Procedure: PI3K activity was measured using a PI3-Kinase Activity ELISA Kit from Echelon Biosciences, following manufacturer's instruction. Briefly, PI3K was pulled down from whole cell lysates using an antibody for PI3K/p85. Each sample was prepared from approximately 1×10^6 cells. The entire immunoprecipitate from each sample was mixed with 30 μl of KBZ reaction buffer, which was then mixed with 30 μl of 10 μM PI(4,5)P2 substrate and incubated for 2 h at 37° C. The kinase reaction was terminated by adding 90 μl of kinase stop solution to each reaction solution, and 60 μl of each mixture was transferred together with 60 μl of PIP3 detector to a well in the incubation plate. After incubation at RT for 1 h, 100 μl per sample from the incubation plate was transferred to the detection plate and incubated for 1 h at RT. The detection plate was washed with TBST, incubated with the HRP-conjugated secondary detector for 30 min, washed again with TBST, and the immobilized HRP was measured by a standard colorimetric assay, using 3,3′,5,5′-tetramethylbenzedine as a substrate and a Synergy 2 Multi-Mode Microplate Reader to record absorbance.

[2] = test system: EGFR; assay: Immunofluorescence staining and confocal microscopy of EGFR trafficking in SW48 cells; type: cell-based, human; conditions: serum-free medium, 25 nM, up to 6 h
Procedure: SW48 cells were grown in chamber slides (4×10^4 cells/well) overnight with or without subsequent treatment with PEPD^G278D (25 nM) and/or chloroquine (25 μM) for up to 6 h. The cells were then washed with ice-cold PBS, fixed with 4% paraformaldehyde for 20 min at room temperature (RT), washed again with ice-cold PBS and blocked with 1% BSA in PBS for 1 h at RT. The cells were then incubated with an EGFR antibody, a His tag antibody for detection of PEPD^G278D, and/or a LAMP1 antibody overnight at 4° C., washed with PBS, incubated with a secondary antibody conjugated to Alexa-Fluor 488 or Alexa-Fluor 647 antibody for 1 h at RT and washed again with PBS. The cells were then examined with a BZ-X700 fluorescence microscope (Keyence) with a S PL FL ELWD ADM 40xC objective. Merged images from Z-stack were organized using the ImageJ software (NIH Image).

[3] = Measurement of plasma PEPD^G278D concentration by ELISA; type: in vivo, mouse; conditions: mice bearing SW48 tumors and HCT116 tumors; 24 h after final PEPD^G278D treatment (4 mg/kg ip with EP)
Procedure: Plasma PEPD^G278D concentration was measured by ELISA as previously reported. Briefly, 96-well ELISA plates were coated with 100 μl/well of a PEPD antibody (mouse monoclonal, against amino acids 101-305, sc-390042) overnight at 4° C. The plates were then washed three times with PBST and incubated with 200 μl/well of a blocking buffer for at least 2 h at RT. The plates were washed again with PBST and incubated with 100 μl/well of a PEPD standard or a sample, which were appropriately diluted, for 2 h at RT. After another round of wash with PBST, each well was incubated with 100 μl of a detection antibody (an anti-PEPD rabbit polyclonal, ab-86507) for 2 h at RT. After another round of wash with PBST, 100 μl of a secondary antibody-HRP conjugate was added to each well, followed by 1 h incubation at RT. The plates were washed again with PBST three times, and each well was then incubated with 100 μl of a HRP substrate solution. After adequate color development, 100 μl of stop solution was added to each well, and absorbance at 450 nm was recorded by a Synergy 2 Multi-Mode Microplate Reader. Purified recombinant PEPD^G278D was used as a standard.

[4] = test system: SW620 cells; assay: MTT cell proliferation assay; type: cell-based, human; conditions: SW620 cells (no EGFR, no HER2); 24, 48 or 72 h
Procedure: (§1) Cells were grown in 96-well plates. […] The cells were then washed with PBS and mixed with dimethyl sulfoxide (150 μl per well), and cell density was determined by measuring the reduction of MTT to formazan spectroscopically at 570 nm using a Synergy 2 Multi-Mode Microplate Reader (BioTek). In experiments involving siRNA transfection, 2×10^3 HCT116 cells or 6×10^3 HT29 cells were seeded to each well of 96-well plates overnight and then transfected 25 nM siRNA (scramble siRNA, EGFR siRNA or HER2 siRNA) as described above, followed by MTT assay.

[5] = test system: SW48 cells; assay: MTT cell proliferation assay; type: cell-based, human
Procedure: as §1

[6] = test system: HT29 cells; assay: MTT cell proliferation assay; type: cell-based, human; conditions: 24, 48 or 72 h, PEPD^G278D 5-250 nM, cetuximab 2.75-275 nM, panitumumab 2.77-277 nM
Procedure: as §1

[7] = test system: HCT116 cells; assay: MTT cell proliferation assay; type: cell-based, human; conditions: 24, 48 or 72 h, PEPD^G278D 5-250 nM, cetuximab 2.75-275 nM, panitumumab 2.77-277 nM
Procedure: as §1

[8] = test system: HRAS, NRAS, KRAS; assay: Western blotting of whole cell lysates: RAS proteins; type: cell-based, human; conditions: 48 h
Procedure: To prepare whole cell lysates, cells were washed with PBS twice, mixed with 1× cell lysis buffer from Cell Signaling Technology supplemented with 2 mM PMSF and a protease inhibitor cocktail from Roche Applied Science, placed on ice for 10 min, sonicated at 0-4° C. to enhance cell lysis using a Branson Model 450 sonifier, and finally centrifuged at 13,000 g for 10 min at 4° C., and the supernatant fraction is collected as whole cell lysate. Tumor and samples were mixed with RIPA buffer (25 mM Tris-HCl, PH7.6, 150 mM NaCl, 1% Nonidet P-40, 1% sodium deoxycholate, and 0.1% SDS), which was supplemented with 2 mM PMSF, the protease inhibitor cocktail mentioned above, phosphatase inhibitor cocktail 2 and phosphatase inhibitor cocktail 3 from Sigma-Aldrich at 14.3 μl buffer per mg tissue, and homogenized in a Dounce homogenizer. The homogenates were cleared by centrifugation at 13,000 g for 15 min at 4° C.
Protein concentrations in all samples were measured using the BCA Assay Kit. […] Proteins were transferred to polyvinylidene fluoride membrane, probed with specific antibodies, and detected using either Luminata Classico (Millipore) or Luminata Cresendo (Millipore). […] The beads were washed three times with IP buffer, suspended in 2× SDS loading buffer, boiled for 5 min, and analyzed by Western blotting.

B1: PEPD^G278D: recombinant and enzymatically inactive mutant of human peptidase D (PEPD), with replacement of glycine 278 by aspartic acid (protein)
chain: AAATGPSFWLGNETLKVPLALFALNRQRLCERLRKNPAVQAGSIVVLQGGEETQRYCTDTGVLFLQESFFHWAFGVTEPGCYGVIDVDTGKSTLFVPRLPASHATWMGKIHSKEHFKEKYAVDDVQYVDEIASVLTSQKPSVLLTLRGVNTDSGSVCREASFDGISKFEVNNTILHPEIVESRVFKTDMELEVLRYTNKISSEAHREVMKAVKVGMKEYGLESLFEHYCYSRGGMRHSSYTCICGSGENSAVLHYGHAGAPNDRTIQNGDMCLFDMDGEYYSVASDITCSFPRNGKFTADQKAVYEAVLLSSRAVMGAMKPGDWWPDIDRLADRIHLEELAHMGILSGSVDAMVQAHLGAVFMPHGLGHFLGIDVHDVGGYPEGVERIDEPGLRSLRTARHLQPGMVLTVEPGIYFIDHLLDEALADPARASFLNREVLQRFRGFGGVRIEEDVVVIDSGIELLTCVPRTVEEIEACMAGCDKAFTPFSGPK
modifications: left off: small tags and cut ends
Q: With B1 as the molecule, how does the “inhibition of PI3K activity” value ([1]; HCT116 cells) read?
A: 74%

Q: What about the “inhibition of PI3K activity” value ([1]; HT29 cells) of the same molecule?
A: 71%

Q: What about the “inhibition of PI3K activity” value ([1]; SW48 cells) of the same molecule?
A: 76%

Q: What about the “inhibition of PI3K activity” value ([1]; SW620 cells) of the same molecule?
A: not in SW620 cells

Q: What about the “EGFR internalization and lysosomal degradation” value [2] of the same molecule?
A: induces EGFR internalization and lysosomal degradation

Q: And the “plasma concentrations of PEPD^G278D” value [3]?
A: high and similar

Q: And the “cell growth measured by MTT assay” value [4]?
A: ineffective

Q: What about the “growth-inhibitory potency compared with the EGFR MABs” value [5] of the same molecule?
A: more potent

Q: And the “cell growth measured by MTT assay” value ([5]; 24, 48 or 72 h, PEPD^G278D 5-250 nM, cetuximab 2.75-275 nM, panitumumab 2.77-277 nM)?
A: strongly inhibited the growth

Q: What about the “cell growth measured by MTT assay” value [6] of the same molecule?
A: strongly inhibited the growth

Q: What about the “cell growth measured by MTT assay” value [7] of the same molecule?
A: strongly inhibited the growth

Q: What about the “expression of HRAS and NRAS” value ([8]; HCT116, HT29 and SW48 cells, 25 nM) of the same molecule?
A: strongly downregulates

Q: What about the “expression of WT or mutated KRAS” value ([8]; PEPD^G278D 25 nM, cetuximab 275 nM) of the same molecule?
A: neither PEPD^G278D nor cetuximab regulated the expression
